Laboratory results as given in the DeepSol protein solubility set.

Assay: soluble on expression in E. coli; label from the status in PepcDB or PDB records

Q: Which “soluble on expression in E. coli” value does the source give for “MGSDKIHHHHHHMQIKNLSLKNKKDLQIWKEFLTEHGISNFSSAEVFKIDETIALFEDQRIVATGSLAGNVLKYIAVESEGSGSEFNSVISQLTNLAAGKGIFHLFVFTKAKYSKSFQFIGFKELAKSDNAALLESGDYLIGDYLAELPRVANQEEKKIAGIVMNANPFTKGHRYLVEKAASENDYVYVFVVSTDASLFNSKERLQLVKEGTADLKNVFVVSGGDYMVSYATFPAYFLTSDQTVIEYQTTLDALIFKNQIAPVLNIQTRFLGEEPFSKTTGIYNRILEKVLPPSVSVKIIPRAKTQSETIITATEVRQLIAKNNLVPLKQFLPFTTIKYVEEHKTELQSRIKKGININGN” here?
A: not soluble

Q: With “MGSDKIHHHHHHMTSSSRIAVRELPLFPLPEVVLFPTRPLPLHIFEFRYRIMMNTILESDRRFGVLMVDPVKGTIANVGCCAEIIHYQRLPDDRMKMLTLGQQRFRVLEYVREKPYRVGLVEWLEDHPPAKDLRPLATDVEQLLRDVVRLSAKITEQNIEIPEELPDLPTELSYWVASNLYGVAGEQQSLLEMQDTAARLEREAEILTTTRNHLAARSVLKDTFNPKL” as the sequence, how does the “soluble on expression in E. coli” value read?
A: not soluble

Q: With “MSLDTFGLIQLAELIYEYCGIDFFKNLSSLESKISERLKELGLSCWEYGGYLRVEPKEWDTLIDLITVNETYFFREENLLEEFQKVILPKYKDRTPNNPLRIWSSACSSGEEPYTLAILSEETGLFETGAVEIIASDIDKKVLEKARRGLYNKKSFSFRTMPKEILDKYFISFGDDYKVKDSIRAMVDFRRVNLLDENKLEKVGEVDIVFCRNVLIYFDTKAINKVINSLYKVLRAGGYLFLGHAETITGMNTGFETIYTPSAFYYRKGERHEGHHHHHH” as the sequence, how does the “soluble on expression in E. coli” value read?
A: soluble

Q: For “MGSDKIHHHHHHMDIPHQRLVYFQVTIEAGSVRQAAARLDIAPSAVSRQLSLIEEALGAPLLERSRQGVVPTPVGEMLLDYCRKRAALDDRFSETLDAYQRLETGHLSLTVGEGFVGDLLDTPLRTFTERYRGVRLDVNTGSTSDIIEAVVEDEAHIGLMYHERLHPQLRFWHSSRQPLVALMSPSHPLAAVENELPLATLSEHPMALWRTGHGVRQLVDEGFREAGLGQHVTMQTNSLSVLLHAARSELTLTLLPAFAAARELEDGALVARAVDCERFRQAHAHIITRVGRRMPKAGLQLLRHLERWMRAFKSRLVSG”, which “soluble on expression in E. coli” value is on record?
A: not soluble

Q: For “MKLIVAVVQDQDSNRLLKTLTDHNFRVTKLATTGGFLKSGNTTFMIGVEDIRVNKALSLIKENGQKRDQMIAPVSPMGGNADSYVPYPVEVEVGGATVFVLPVDEFHQFLEHHHHHH”, which “soluble on expression in E. coli” value is on record?
A: soluble

Q: Which “soluble on expression in E. coli” value does the source give for “MSLGIRIGDGCIFRDPLTTRIDVSRPALVSIGSNVDMNTYFQILTHDWASFVFRNKYHDFVNSSGRVEIGSNIYIGTNVIVLRGVTIGDNCVIGAGSVVTHDIPANSVAVGAPCRVVCSLDEYYQKRKVKGLQEAVEHVKAFQKNFGRDPLPHELYEEFIYFVDASNVEEYERQGVPVRSQLSIAYGDWLSTHKAKFSSYDDFIQYVNQKMNETLEHHHHHH” here?
A: not soluble

Q: Which “soluble on expression in E. coli” value does the source give for “MEIINDAELIRSMQRQQHIDAELLTDANVRFEQPLEKNNYVLSEDETPCTRVNYISLDDKTVRKFSFLPSVLMKETAFKTGMCLGSNNLSRLQKAAQQILIVRGYLTSQAIIQPQNMDSGILKLRVSAGEIGDIRYEEKRDGKSAEGSISAFNNKFPLYRNKILNLRDVEQGLENLRRLPSVKTDIQIIPSEEEGKSDLQIKWQQNKPIRFSIGIDDAGGKTTGKYQGNVALSFDNPLGLSDLFYVSYGRGLAHKTDLTDATGTETESGSRSYSVHYSVPVKKWLFSFNHNGHRYHEATEGYSVNYDYNGKQYQSSLAAERMLWRNRLHKTSVGMKLWTRQTYKYIDDAEIEVQRRRSAGWEAELRHRAYLNRWQLDGKLSYKRGTGMRQSMPAPEENGGDILPGTSRMKIITASLDAAAPFILGKQQFFYATAIQAQWNKTPLVAQDKLSIGSRYTVRGFDGEQSLFGERGFYWQNTLTWYFHPNHQFYLGADYGRVSGESAQYVSGKQLMGAVVGFRGGHKVGGMFAYDLFAGKPLHKPKGFQTTNTVYGFNLNYSF” here?
A: not soluble

Q: With “MSLKIIPGATGYFNKTLNSNQFDNEDAIKGKVNSIYGKSIDYSTMRHRDIIIAKIDLFIQRITHNLWTAREKNVTLIKQINDLKMCVNEYIGDCTDEELNDREFIASVVDRAIFHFAINSICNPEDNKDATLIERCTFDVETKNGLPSTVQLFYEESKDNEPLANIHLQAIGSGFLTFVNACQEHDDNSLKLFASLLISLSYSSVYSDFAGRVNINEYNDNYLKAQFEELSQRDMKKYLGEMKRLADGGEMNFDGYLDKMSHLVNEGTLAPDILSKMRDAAPKLIDFAKSFDPNSKEKIKIYTGTSKLIYDLFGVKSEKEGHHHHHH” as the sequence, how does the “soluble on expression in E. coli” value read?
A: soluble

Q: With “MGHHHHHHSHMPGRSSSNSGSTGFISFSGVESALSSLKNFQACINSGMDTASSVALDLVESQTEVSSEYSMDKAMVEFATLDRQLNHYVKAVQSTINHVKEERPEKIPDLKLLVEKKLLALQSKNSDADFQNNEKFVQFKQQLKELKKQCGLQADREADGTEGVDEDIIVTQSQTNFTCPITKEEMKKPVKNKVCGHTYEEDAIVRMIESRQKRKKKAYCPQIGCSHTDIRKSDLIQDEALRRAIENHNKKRHRHSE” as the sequence, how does the “soluble on expression in E. coli” value read?
A: not soluble

Q: With “MTLSKQLKTYITERFKLNYQDTWSCETVDAVAEDVLPEKYIKNSPLEHKILNTFTYYNDELHEISIYPFLCYLDKELIAIGYLDNFDLDFIFLNDTHQIIIDERYLLQKGGELEHHHHHH” as the sequence, how does the “soluble on expression in E. coli” value read?
A: not soluble

Q: With “VMGKRYVATPQQSQWEMVVNTPLECQLVHPIPSFGDAVFSSRANKKINLDFELKMRRPMGETRNVSLISMPPPWRPGEHADRITNLKFFKQFDGYVGGQTAWGILSELEKGRYPTFSYQDWQSRDQRIEVALSSVLFQNKYNAFSDCISNLLKYSFEDIAFTILHYERQGDQLTKASKKRLSQIADYIRHNQDIDLVLVATYTDSTDGKSASQSLSERRAESLRDYFQSLGLPEDRIQVQGYGKRRPIADNGSPIGKDKNRRVVISLGRTQVHHHHHH” as the sequence, how does the “soluble on expression in E. coli” value read?
A: soluble

Q: With “MLVEGSELQSGAQQPRTEAPQHGELQYLRQVEHIMRCGFKKEDRTGTGTLSVFGMQARYSLRDEFPLLTTKRVFWKGVLEELLWFIKGSTNAKELSSKGVRIWDANGSRDFLDSLGFSARQEGDLGPVYGFQWRHFGADYKDMDSDYSGQGVDQLQKVIDTIKTNPDDRRIIMCAWNPKDLPLMALPPCHALCQFYVVNGELSCQLYQRSGDMGLGVPFNIASYALLTYMIAHITGLQPGDFVHTLGDAHIYLNHIEPLKIQLQREPRPFPKLRILRKVETIDDFKVEDFQIEGYNPHPTIKMEMAV” as the sequence, how does the “soluble on expression in E. coli” value read?
A: soluble

Q: With “MKALIVDDEPLARNELQYLLNLNDAIDEIEEAENIEETLEKLLYNTFDLIFLDINLMDESGIDLAQKINKMKRSPHIIFATAHEKFAVKAFELNATDYILKPFEKERINQAVNKVDMAKDKSKNKDKTITPKYIDYSDDERAQTHVLPIEVDERIHILNFTDIIALSVNNGITTIDTTKQSYETTETLNHYEKKLPSSLFIKIHRATIVNKEHIQTIEHWFNYTYQLTLTHEFKYQVSRSYMKTFKQQLGLQ” as the sequence, how does the “soluble on expression in E. coli” value read?
A: not soluble

Q: Which “soluble on expression in E. coli” value does the source give for “GVKYAYHGGAMANGIASVELVVALGKAGFLCSFGAAGLVPDAVEDAIKRIQAELPNGPYAVNLIHAPAEEALERGAVERFLKLGVKTVEASAYLGLTEHIVWYRLAGLSKNSDGSVKIGNKVIAKVSRTEVGRRFMEPAPQKLIDKLLAQGKVTQEQAELSKLVPMADDITAEADSGGHTDNRPFLTLLPTIIALRDEVQAQYNFSPALRVGAGGGIGTPEAALAAFNMGSAYIVLGSVNQACVEAGASEYTRKLLAQVEMAD” here?
A: not soluble
